In patent US20170002055A1, “Novel peptides and combination of peptides for use in immunotherapy against ovarian cancer and other cancers” (immatics biotechnologies GmbH, priority 2015, published 2017):

Molecular target: HLA-A*02:01 (Homo sapiens, UniProt P04439, D140Y/D185E/D98H/E176V/E277Q/G131W/G231S/I119V/I121R/I166T/I218V/L300P/L318F/N151K/N90K/P208A/P217A/Q86G/Q94H/R138H/R169H/T345S)
Assay: MHC binding assay (UV-ligand exchange, β2m ELISA, peptide exchange yield)
Conditions: MHC class I binding score; binding to HLA-A*02:01 ranged by peptide exchange yield (UV-ligand exchange, β2m ELISA)
Source text: Candidate peptides for T cell based therapies according to the present invention were further tested for their MHC binding capacity (affinity). The individual peptide-MHC complexes were produced by UV-ligand exchange, where a UV-sensitive peptide is cleaved upon UV-irradiation, and exchanged with the peptide of interest as analyzed. Only peptide candidates that can effectively bind and stabilize the peptide-receptive MHC molecules prevent dissociation of the MHC complexes. To determine the yield of the exchange reaction, an ELISA was performed based on the detection of the light chain (β2m) of stabilized MHC complexes. The assay was performed as generally described in Rodenko et al. (Rodenko et al., 2006).
96 well MAXISorp plates (NUNC) were coated over night with 2 ug/ml streptavidin in PBS at room temperature, washed 4× and blocked for 1h at 37° C. in 2% BSA containing blocking buffer. […] Peptide-MHC monomers of the UV-exchange reaction were diluted 100 fold in blocking buffer. Samples were incubated for 1h at 37° C., washed four times, incubated with 2 ug/ml HRP conjugated anti-β2m for 1h at 37° C., washed again and detected with TMB solution that is stopped with […]. Absorption was measured at 450 nm. Candidate peptides that show a high exchange yield (preferably higher than 50%, most preferred higher than 75%) are generally preferred for a generation and production of antibodies or fragments thereof, and/or T cell receptors or fragments thereof, as they show sufficient avidity to the MHC molecules and prevent dissociation of the MHC complexes.

| Substance | Peptide exchange |
| --- | --- |
| 1 (SLMEPPAVLLL; listed as Homo sapiens) [compound 1] | “+++” (≧50 = +++) |
| 4 (GIMEHITKI; listed as Homo sapiens) [compound 4] | “++++” (≧75% = ++++) |
| 6 (VLVSDGVHSV; listed as Homo sapiens) [compound 6] | “+++” (≧50 = +++) |
| 9 (GAAKDLPGV; listed as Homo sapiens) [compound 9] | “++” (≧20% = ++) |
| 10 (FLATFPLAAV; listed as Homo sapiens) [compound 10] | “++++” (≧75% = ++++) |
| 12 (SLWPDPMEV; listed as Homo sapiens) [compound 12] | “+++” (≧50 = +++) |
| 13 (YLMDESLNL; listed as Homo sapiens) [compound 13] | “+++” (≧50 = +++) |
| 14 (AAYGGLNEKSFV; listed as Homo sapiens) [compound 14] | “+++” (≧50 = +++) |
| 15 (VLLTFKIFL; listed as Homo sapiens) [compound 15] | “++” (≧20% = ++) |
| 16 (VLFQGQASL; listed as Homo sapiens) [compound 16] | “+++” (≧50 = +++) |
| 18 (YLVAKLVEV; listed as Homo sapiens) [compound 18] | “++” (≧20% = ++) |
| 20 (RMIEYFIDV; listed as Homo sapiens) [compound 20] | “+++” (≧50 = +++) |
| 21 (VLDELDMEL; listed as Homo sapiens) [compound 21] | “++” (≧20% = ++) |
| 22 (IMEENPGIFAV; listed as Homo sapiens) [compound 22] | “+++” (≧50 = +++) |
| 23 (VLLDDIFAQL; listed as Homo sapiens) [compound 23] | “+++” (≧50 = +++) |
| 24 (SLSDGLEEV; listed as Homo sapiens) [compound 24] | “++” (≧20% = ++) |
| 25 (FLPDEPYIKV; listed as Homo sapiens) [compound 25] | “+++” (≧50 = +++) |

| Substance | Peptide exchange |
| --- | --- |
| 26 (ALLELAEEL; listed as Homo sapiens) [compound 26] | “+++” (≧50 = +++) |
| 27 (ILADIVISA; listed as Homo sapiens) [compound 27] | “+++” (≧50 = +++) |
| 28 (QLLDETSAITL; listed as Homo sapiens) [compound 28] | “+++” (≧50 = +++) |
| 29 (KMLGIPISNILMV; listed as Homo sapiens) [compound 29] | “+++” (≧50 = +++) |
| 30 (LILDWVPYI; listed as Homo sapiens) [compound 30] | “+++” (≧50 = +++) |
| 31 (YLAPELFVNV; listed as Homo sapiens) [compound 31] | “++” (≧20% = ++) |
| 32 (KLDDLTQDLTV; listed as Homo sapiens) [compound 32] | “++” (≧20% = ++) |
| 33 (VLLSLLEKV; listed as Homo sapiens) [compound 33] | “++” (≧20% = ++) |
| 34 (ILVEADSLWVV; listed as Homo sapiens) [compound 34] | “+++” (≧50 = +++) |
| 35 (KINDTIYEV; listed as Homo sapiens) [compound 35] | “+++” (≧50 = +++) |
| 39 (SVAPNLPAV; listed as Homo sapiens) [compound 39] | “+++” (≧50 = +++) |
| 41 (SLMPHIPGL; listed as Homo sapiens) [compound 41] | “+++” (≧50 = +++) |
| 42 (VLLQKIVSA; listed as Homo sapiens) [compound 42] | “+++” (≧50 = +++) |
| 43 (VLSSLEINI; listed as Homo sapiens) [compound 43] | “++” (≧20% = ++) |
| 44 (ILDPISSGFLL; listed as Homo sapiens) [compound 44] | “++” (≧20% = ++) |
| 45 (SLWQDIPDV; listed as Homo sapiens) [compound 45] | “+++” (≧50 = +++) |
